Measured values: the DeepSol protein solubility set

Assay: soluble on expression in E. coli; label from the status in PepcDB or PDB records

| Sequence | soluble on expression in E. coli |
| --- | --- |
| MGSDKIHHHHHHMTTWVLLRGLMRDQRHWNGFDQRLRQKGLRVLTPDLPGNGTLSTEASPLKIADYAHAVWLQLDEQVQEGETIYLLGLSMGGMLALEMARQRPWLIRHVFVLNSSAANLSAWYQRFNPLNALKAFFLRARGKALHPIESTIVRLTSFRHRLDCGLIAEWSEFRRQSSPTIRNAWRQLWAAFQYQCPLTVEVPISVLCGDRDALVSMASSKALALHFHTDLIVLAYCGHDAAIDAPAKLAHYLLAIVAPTKLQAEVQEDDEPAHAQYAHTQYSCNDLLEEEMAFNEAIFSVWDEKALSTLHSKSSAMNSAKTVNS | not soluble |
| MAFVLNGQDLDALATGGCFFGSGGGGTLSSAKGLLRHFNKGAYYPADQVTVVTVDEAVSAAEGDAVMVAYMGSPQAINGSSYPEGPVGAAENIQGKLATQGRKLAYIVPPESGALGFVVACLVAVRLGLKVIDADGAGRAVPSLPMLTYAAAAISPRPAVLVSQEGLQVELDVTPRDGENGSVTHQQDVAAIIENMMRPIVAAAQFKEFGGLAMWVMAPEQFSAALPIHGTLSRAVKTGHALAAGELDTAARMQDFLKRESGLLARPIFTGQFKAVEVSTGAGFDVGKMHIVSAEATCTVVYQNESMLAWDSRAAAPLVTAPDSLAYFVSGPGQSVYSNGDAVLADGTLSPSLKDRTVTLFAWQADAALRTPDGQILASFMGLLADMGYLGPYISVEAMQLATAGESRPLEHHHHHH | not soluble |
| MDDGDTADDIMDATYRALCTHGYADLTMQDIADESDKSKAALHYHYDSKHDLLCAFLEYLYDGFVDRIEDPAGETPHERLLSLIDSVLDKPDDGSEEFGTAILEIRAHAPYEPGFRERLTKFDDYLVDELEVILEDGIADGTFKSDLDADETAQFIVTVLTGAATERVTTGRPVKCTRRMLTEYVETHLLDGQQEVTA | not soluble |
| MSLSWIYDAHIHLSDPEYKSDMNMILNYMDLLKIKACCVSMDLETSNETMSLYEKSKNILPFIGIHPEMAQKESKPVYDLIEKNNEIISGVGEIGLDRTYIDTEDEWNVQKEVFSKQLSLAEKFNKPVSIHSRKTLSDIFEILPSYKIPGILLHWFDGNKSQLRTAMDNEYFVSYGPLLIYAHDKQTLLTKTDPNRLLVETDGPVKFSRCFEYKTTEIMFVSSVIFCASKLLHMPYEKLLEQIEGNSKRFLGIEGHHHHHH | soluble |
| MEQAMLKTLALLVLGMHYWCATGFPVYDYDPSSLQEALSASVAKVNSQSLSPYLFRATRSSLKRVNVLDEDTLVMNLEFSVQETTCLRDSGDPSTCAFQRGYSVPTAACRSTVQMSKGQVKDVWAHCRWASSSESNSSEEMMFGDMARSHRRRNDYLLGFLSDESRSEQFRDRSLEIMRRGQPPAHRRFLNLHRRARVNSGFE | soluble |
| MKRVLIFADIFPPAFAPRAAYLTKYLPRFGWEPFVITEKMPTPASQSHGDVFGGFCSDIPVTAIDLSSASFLSQAIRSARLFGELFWEQKEERFYKEAAKAFPSVKFDAVLCLTYRKFPLATACRYAQAHRLPWVADCRDVIEQYSNYDFLPRGKRLPSLLMKWLRHRYISLRNHYLHKADRVVSVSPWHCNLLAEVNPRTELIYNGYDPELFSRGSLPCGKFILSYTGRLLTPEMHDPTLLFEALASEALQEVRKERRIELHWYVDEYSRSILQPFIRQYALKDMCRFFPMVPAVQVPEILRHSSVLLQLGNTEKPGGPHGIVSTKLFESLAMEKPILMVRSDEAIVADIISEAEAGLAAQTTEEVATFLSDQYTRWKAEGDTSLRNPNRNFISTFSREEEAKQYARLLESIVAN | not soluble |
| MNRGVITISESGTVSMPTYTVWMTLQEIADMYNVFGCYVRKAVKAIFKDGILKEQGVRRHVRKNDRISYDVYSLELVIAVAFRIDSIESRAFREFIMQSVIGRQTSRTKLVCIFTENAMA | not soluble |
| SLLCVVGGSMNVSMEASIVESLLQRRCLKESDLYRARQLQAESGVGLLPLLGRLGLVSERDHAEVCAEVMGLLLIQVRELPDTPPEFSAEVHGLSIRFLKQFHVCPLAEHDGVLQLCVADPFDVYAIEALRLATGAVLQLCIGLRSEIDDLVERWYGQGRS | soluble |
| SSQVPDVMVVGEPTLMGGEFGDEDERLITRLENTQFDAANGIDDEGGSGGHMGSGGTPEIPMCAGCDQHILDRFILKALDRHWHSKCLKCSDCHVPLAERCFSRGESVYCKDDFFKRFGTKCAACQLGIPPTQVVRRAQDFVYHLHCFACVVCKRQLATGDEFYLMEDSRLVCKADYETAKQ | soluble |
| MGSDKIHHHHHHAAVGEKLGWPQQKISKIESGEQKRIPAAELDALLEVYGVTDPQIRESLHECARLAKERGWWTRYKDAFPSGLPDFESEASVIRSYECQVIPGILQTPDYADAIFRAYKLREDKEIDRLVKARMERQNILNRVDPPHFMTIIDEAALHRLVGSVEVMRTQLRHLTHMASRHNIDIYVLPFKAGAHAATTGSFMIMDFPDPMDNSIVYVDTPTSILYIEDEEEVREFNVMFSRTQSAALSPTLSMDLVKKVIKSLEE | not soluble |
| MLTQQQIDHIYDSLGCPLHFLWSYIGTAHGLSHDQADPDSFEERKKDFFFIVGKLLDDGLLKLGNRKTELIMEGNIEELVEMFRKSLPASDEEIDQEVGGLWFFTDCPFVAAWVYKGAGENGEDEYDWC | not soluble |
| MTIAVSPQALPALVLNADYRPLSYYPLSLWSWQDAIKAVFLDRVNIIAEYDHAVSSPSFSMRLPSVVSLKTYVQPIRNPAFTRFNVFLRDKFECQYCGTRDELTFDHVIPRAHGGETTWHNVVAACSPCNLRKGSKLPKQAGMFPAQKPFQPTVQDLHNNGRLFPPNYLHESWMDYLYWDTELQPLEHHHHHH | not soluble |
| NGNPIPMGYSQAVENNVQITNFALFSAAAIGVELCLFDEQNQETRLPMVRTENVWHLAVTGVKTGTEYAFRIHGEFANPQKLILDPYAKAVNGKPDLSSEESRSWFLLSDNRDNAHLAPRAVVIS | not soluble |
| MTVGYGFSASGDYSQSKIRADHASVTEQSGIYAGEDGYQIKVRDNTDLKGGIITSSQSAEDKGKNLFQTATLTHSDIQNHSRYEGKSFGIGGSFDLNGGWDGTVTDKQGRPTDRISLAAGYGSDSDSQSSITKSGINTRNIHITDEAGQLARTGRTAKETEARIYTGIDTETADQHSGRLKNSFDKDAVAKEINLQREVTKEFGRNATQAVAAVADKLGNTQSYERYQEARTLLEAELQNTDSEAEKAAFRASLGQVNAYLAENQSRYDTWKEGGIGRSILHGAGRQSAMRRAGMSVRRQ | not soluble |
| MGSDKIHHHHHHMPRQMRPDIADIRTGADLRQWYWRKDELVAHARTLGLKRSGAKFTILDRIAHFLDTGARDLPEAPAPKPTSDFDWHSAKLTPDTILTDSYKNTQNVRRFFKAQLGPRFAFSIPLMAWLKENSGKTLSDACAVWRDLQAERRRPGWQSDIKGHNQFNQYTRDFLAAHPDLGMDDVRRVWARKIQQPSPDGRHIYEPSDLDL | not soluble |
| MGSDKIHHHHHHMSTPLSHATLEQLFLNARTHSHWQPRPVSDELLHQLHELLKQAPTSANCSPARFVFVKSEAAKAKLKPCLAAGNVDKTMAAPVCVIVAHDTRFYEHLPQLFPHADAKSWFEGNQPLIDTTAFRNGTLQGAYLILAARSLGLDCGPMSGFDNAAVDAAFFPDGRVKSNFLINLGYGEADKLFPRSPRFGFDEACQIL | not soluble |
| MGSDKIHHHHHHMEFTSLWQEFARISEVEAIALGGSRATGNYDETSDYDLYIYCSSIPDEATRLTILKSFCSYIEIGNHFWELEDDCTLMSGQDIDILYRDINQIRDELVDVVERCIIQNAYTTCLWHNVLHSKILYDSDDKLKCIVNRFDINYPQKLKQTILSHHMNLLTGHLPSYDKQIIKAVMRKDIVSFNHRVTAFLETYFDLIFALNMLTHPGEKRMIAYAEQNAQSLPNHFQKNIERLIYGTTCHPYDIQDILNDILNELTPLLHDSIG | not soluble |
| MAHHHHHHMCACTYSYPRAAHGHDGTTSQLFTRKRIFTLPQLHRSYFLKLLFVQKPLSNPLLAVSLHLTFHQHHSLLGPSVACRAHKHMINYYAKCRARNHTEGEGRCLAFRGMY | not soluble |
| SAKGGKGPKGKKITLNVAKNCIKITFDGRKRLDLSKMGITTFPKCILRLSDIDELDLSRNMIRKIPDSIAKFQNLRWLDLHSNYIDKLPESIGQMTSLLFLNVSNNRLTTNGLPVELNQLKNIRTVNLGLNHLDSVPTTLGALKELHEVGLHDNLLTTIPASIAKLPKLKKLNIKRNPFPNADESEMFVDSIKRLENLYLVEEKDMCSSCLQRCQQARDKLNKIKSMAPSAPRKALFSNLVSPNSTAKDAQEEWR | soluble |
| MSKVLVLKSSILAGYSQSGQLTDYFIEQWREKHVADEITVRDLAANPVPVLDGELVGAMRPGDAPLTPRQQDALALSDELIAELKAHDVIVIAAPMYNFNIPTQLKNYFDLIARAGITFRYTEKGPEGLVTGKRAVVLSSRGGIHKDTPTDLIAPYLKVFLGFIGITDVNFVFAEGIAYGPEVAAKAQADAKAAIDSVVAA | soluble |
| MQTSDLLKKVRRIEIKARGLSRQIFAGQYHSAFRGRGMAFSEVREYTVGDDVRDIDWNVTARYARPYVKVFEEERELTVMLMVDMSGSLSFGTEVETKRELTAEVAATLAFSAIQNNDKIGVLFFTDRIEKYVPPAKGKKHILYIIRELLEFRPQSRATDLSVPLSYLTRLVKKRCTAFLISDFQSEKDSYEKTLLMSARKHDIVAIRIFDRREADLPNVGLMRFRDAETGQTHWVDTADSSVRKAYADAYERRQVALAVLLKRCGVDTTEIRTGQDFVQQLLILFKKRS | not soluble |
| MGSDKIHHHHHHMERNEIEQLVAHGIFPYDQQAKTRLIETAISYILLKGSYAYKIKKNIKLSFLDFSTLEKRRHFCYEELRLNQRLAKDMYINVFAVSKKGKQWSISTGPAKAKEYVILMKGMNPDHQLNALLKKNRITKKPIRQLAQQLADFHQNEKSLSLTYDPFFLSREFADIEKFSSTIEKKLGVDYYKLVQTCIQLSNHFVLLQQEFISKRPCLGYFKNCHGDLHSQNIFIEKKPVIFDCIEFREAFRHIDVLNEIAFLCMDLETYGYADLSKIFLTDYIKKTGYAFGKKEQLLFTYFKAYRSCIRAKVHTIEMSQHPSSTQIKEKVKKYIEGMAGYMIEIAGKF | not soluble |
| MSGDIPLHQLQPNMNSFSVTVIVLDPGIHRRTQTGTIISMKVADASGSINASIMNPEFNETFKPGDILKFRGAYTSIYQGGLTLSVGKSGECKKVGEFMMVFSETPDISMMPLPAGVMDRRNERMQSPAGRYSRPSN | not soluble |
| AGLPRNAVTAVVPSPFHHAEAGVLRVPDLKADPRNAAEHTAAIIRELPELVKGARGSLVLFSSRKQMQEVFDGLDRDWRKRVFIQGNLSKQETLNKHKSRVDDGEDSVLFGLASFAEGVDLPGAYCEHVVIAKIPFAVPDDPVEAALAEWIEARGGNPFMEIAVPDASLRLVQACGRLLRTEQDRGTITLLDRRVVTQRYGKAILNALPPFRREIA | not soluble |
| KQVYAFDIQKQALEKTQERLHQADLTNAQLILQGHETLDQFVIKAKAGIFNLGYLPAADKSVITRPQTTIEALEKLCGLLVKGGRIAIMIYYGHEGGDLERDAVLDFVIQLNQQEYTAAIYRTLNQVNNPPFLVMIEKLERYRH | not soluble |
| RIVCQFSCGAASAVATKLALADYSATHDVQILNAYLVNEHADSLRFLADCEAWFEQPVTVLRDEKYGADIIEVFRRERFIKKQYGASCTQLLKRRLLDIWKLPGDVMVFGYTAEEADRLEDFRERNPDRPVIAPLIDRGLGKEDCKAMIQRAGIELPVMYRMGYDNANCI | not soluble |
